# Assay results reported in publication PMC3315512, “The Lid Domain of Caenorhabditis elegans Hsc70 Influences ATP Turnover, Cofactor Binding and Protein Folding Activity” (PLoS ONE, 2012).
# What was measured:
# [1] = target: T1, His6-CeHsc70 (Caenorhabditis elegans Hsc70, HSP-1) (C. elegans, UniProt P09446 1-640); test: AUC; competition: 15 µM BAG-1 added to 300 nM *DNJ-13, 3 µM CeHsc70 and 4 mM ATP; sedimentation velocity with fluorescence detection; dc/dt analysis; settings: both partners purified
# T1 construct: CeHsc70 (HSP-1), the sole Hsc70-like protein of C. elegans; full-length protein (the lid is said to end at amino acid 640); pET28a-based plasmid; also called nematodal Hsc70; source: E. coli BL21-CodonPlus (DE3)-RIL, purified (HisTrap, ResourceQ, Superdex 75)
# [2] = target: T1, His6-CeHsc70 (Caenorhabditis elegans …); test: cell-based or functional assay
# [3] = target: the molecule itself; test: AUC; sedimentation velocity with fluorescence detection, 300 nM *DNJ-13 alone, 20°C, 42 000 rpm; whole boundary fitting and C(s) (UltraScan)
# T1 sequence (P09446 whole entry): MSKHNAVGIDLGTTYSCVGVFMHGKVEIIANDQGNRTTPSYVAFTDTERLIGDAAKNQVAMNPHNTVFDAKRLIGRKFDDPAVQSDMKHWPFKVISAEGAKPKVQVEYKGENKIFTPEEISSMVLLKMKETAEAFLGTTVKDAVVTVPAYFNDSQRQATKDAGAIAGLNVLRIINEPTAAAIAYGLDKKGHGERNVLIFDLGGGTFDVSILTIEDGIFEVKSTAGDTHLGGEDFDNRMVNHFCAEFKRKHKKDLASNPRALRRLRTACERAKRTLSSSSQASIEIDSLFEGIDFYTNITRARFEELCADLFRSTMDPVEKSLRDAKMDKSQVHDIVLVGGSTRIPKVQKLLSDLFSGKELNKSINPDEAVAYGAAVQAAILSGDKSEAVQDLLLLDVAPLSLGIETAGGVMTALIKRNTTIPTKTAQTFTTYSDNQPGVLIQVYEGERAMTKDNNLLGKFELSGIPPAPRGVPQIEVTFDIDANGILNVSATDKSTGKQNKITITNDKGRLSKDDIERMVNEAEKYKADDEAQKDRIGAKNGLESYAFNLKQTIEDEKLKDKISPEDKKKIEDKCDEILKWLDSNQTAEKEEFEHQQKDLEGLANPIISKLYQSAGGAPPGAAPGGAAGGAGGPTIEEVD
binder,measurement,setting,value
"BAG-1 (C. elegans, unlabelled) (natural protein, UniProt O44739 1-210, looked up, BAG-1, nucleotide exchange factor of C. elegans, full-length, cloned from a C. elegans cDNA preparation; a His tag is surmised from the HisTrap column; also called nematodal BAG-1; source: E. coli BL21-CodonPlus (DE3)-RIL, purified (HisTrap, ResourceQ, Superdex 75)) MKVNVSCSSVQTTIDILEENQGEDESILTLGQLRDRIATDNDVDVETMKLLHRGKFLQGADDVSLSTLNFKENDKIIVMGGKNALVDDAGFKMLMQYEKHNLSNLQKAYDLNLRDVADLERGFLEKPKQVEMGKKLEKKVKYFNEEAERHLETLDGMNIITETTPENQAKRNREKRKTLVNGIQTLLNQNDALLRRLQEYQSVLNGDIPE",binding result,[1],binds
"DNJ-13 (C. elegans, unlabelled) (natural protein) not shown","apparent KD of DNJ-13 from titration of the steady-state ATPase activity of 1 µM CeHsc70 in the presence of 2 µM BAG-1, standard buffer, 25°C",[2],6.8 µM
"*DNJ-13 (C. elegans DNJ-13 labelled with carboxyfluorescein) (natural protein, 5-(and-6)-carboxyfluorescein succinimidylester, preferential labeling at the N-terminal amine group (labelling efficiency 1.2), DNJ-13, Hsp40-like J-domain protein of C. elegans (Sis1 / DNAJB homolog); also called fluorescently labeled DNJ-13; source: E. coli BL21-CodonPlus (DE3)-RIL, purified (HisTrap, ResourceS, Superdex 75), then labelled) not shown",stoichiometry N,[3],2
